Data reported in article PMC7671035 (mAbs, 2020).

Key:
human CXCL13 = human CXCL13 (Homo sapiens (Human)., UniProt O43927); assay: ELISA
human CXCL10 = human CXCL10 (Homo sapiens (Human)., UniProt P02778); assay: ELISA
human CXCL16 = human CXCL16 (Homo sapiens, UniProt Q9H2A7); assay: ELISA
human CXCL14 = human CXCL14 (Homo sapiens, UniProt O95715); assay: ELISA
human CXCL12 = human CXCL12 (Homo sapiens, UniProt P48061); assay: ELISA
human CXCL17 = human CXCL17 (Homo sapiens, UniProt Q6UXB2); assay: ELISA
human CXCL4 = human CXCL4 (Homo sapiens (Human)., UniProt P02776); assay: ELISA
rat CXCL3 = rat CXCL3 (Rattus norvegicus, UniProt Q10746); assay: SPR
mouse CXCL2 = mouse CXCL2 (Mus musculus, UniProt P10889); assay: SPR
mouse CXCL1 = mouse CXCL1 (Mus musculus, UniProt P12850); assay: SPR
rat CXCL1 = rat CXCL1 (Rattus norvegicus, UniProt P14095); assay: SPR
rat CXCL2 = rat CXCL2 (Rattus norvegicus, UniProt P30348); assay: SPR
mouse CXCL3 = mouse CXCL3 (Mus musculus, UniProt Q6W5C0); assay: SPR
human CXCL1 = human CXCL1 (Homo sapiens, UniProt P09341)
Sequence of human CXCL1 (P09341 35-107): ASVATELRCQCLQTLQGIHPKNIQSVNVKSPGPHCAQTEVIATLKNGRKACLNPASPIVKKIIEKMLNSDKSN

Sequence of human CXCL17 (Q6UXB2 22-119): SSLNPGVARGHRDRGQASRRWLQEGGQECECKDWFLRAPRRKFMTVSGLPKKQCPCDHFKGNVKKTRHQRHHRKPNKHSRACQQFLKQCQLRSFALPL
Sequence of mouse CXCL2 (P10889 28-100): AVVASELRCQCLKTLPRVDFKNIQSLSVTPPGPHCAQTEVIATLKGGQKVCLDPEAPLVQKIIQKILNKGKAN
Sequence of human CXCL10 (P02778 22-98): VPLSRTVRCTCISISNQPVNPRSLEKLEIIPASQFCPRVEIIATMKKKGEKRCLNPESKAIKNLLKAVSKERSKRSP
Sequence of rat CXCL3 (Q10746 33-101): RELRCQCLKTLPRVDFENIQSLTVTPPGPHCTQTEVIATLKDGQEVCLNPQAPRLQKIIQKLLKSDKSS
Sequence of human CXCL16 (Q9H2A7 30-254): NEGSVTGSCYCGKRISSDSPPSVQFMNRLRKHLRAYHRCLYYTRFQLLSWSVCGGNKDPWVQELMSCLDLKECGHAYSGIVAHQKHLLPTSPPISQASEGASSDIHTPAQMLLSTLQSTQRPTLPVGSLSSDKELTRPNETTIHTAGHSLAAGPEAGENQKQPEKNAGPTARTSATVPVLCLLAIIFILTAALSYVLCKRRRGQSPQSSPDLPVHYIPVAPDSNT
Sequence of human CXCL4 (P02776 32-101): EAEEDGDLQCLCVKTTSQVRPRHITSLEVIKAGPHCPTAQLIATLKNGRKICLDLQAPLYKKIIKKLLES
Sequence of mouse CXCL3 (Q6W5C0 32-100): as the sequence (Q10746 33-101) above, with R1S, K9N, N18T, A52G, K57I, Q60K, L62I, D66G counted along it
Sequence of rat CXCL1 (P14095 25-96): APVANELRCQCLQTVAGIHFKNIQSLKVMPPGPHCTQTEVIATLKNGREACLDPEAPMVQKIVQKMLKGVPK
Sequence of mouse CXCL1 (P12850 25-96): as the sequence (P14095 25-96) above, with V3I, V15M, F20L, M29L, P31S, M58L counted along it
Sequence of human CXCL12 (P48061 22-93): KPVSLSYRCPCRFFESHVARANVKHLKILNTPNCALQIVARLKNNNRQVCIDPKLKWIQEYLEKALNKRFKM
Sequence of human CXCL14 (O95715 35-111): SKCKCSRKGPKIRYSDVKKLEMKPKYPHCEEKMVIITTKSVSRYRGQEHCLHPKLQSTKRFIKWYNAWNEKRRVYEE
Sequence of human CXCL13 (O43927 23-109): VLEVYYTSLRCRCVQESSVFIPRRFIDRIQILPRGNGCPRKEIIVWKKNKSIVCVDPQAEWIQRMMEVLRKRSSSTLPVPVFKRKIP
Sequence of rat CXCL2 (P30348 32-100): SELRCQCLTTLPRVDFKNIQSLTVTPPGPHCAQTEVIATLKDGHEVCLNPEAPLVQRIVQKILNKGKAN

Row | binding result (human CXCL13) | binding result (human CXCL10) | binding result (human CXCL16) | binding result (human CXCL14) | binding result (human CXCL12) | binding result (human CXCL17) | binding result (human CXCL4) | Kd (rat CXCL3) [nM] | Kd (mouse CXCL2) [nM] | Kd (mouse CXCL1) [nM] | Kd (rat CXCL1) [nM] | Kd (rat CXCL2) [nM] | Kd (mouse CXCL3) [nM] | binding result (human CXCL1) | Binder
1 | no binding (tested: 20 µg/mL) | no binding (tested: 20 µg/mL) | no binding (tested: 20 µg/mL) | no binding (tested: 20 µg/mL) | no binding (tested: 20 µg/mL) | no binding (tested: 20 µg/mL) | no binding (tested: 20 µg/mL) | ~0.2 | ~0.2 | ~0.2 | ~0.2 | ~0.2 | ~0.2 | – | LY3041658 (antibody, V domains shown) VH: QVQLVQSGAEVKKPGASVKVSCKASGYEFTSYWIHWVRQAPGQGLEWMGNISPNSGSANYNEKFKSRVTMTRDTSTSTVYMELSSLRSEDTAVYYCAREGPYSYYPSREYYGSDLWGQGTLVTVSS VL: EIVLTQSPATLSLSPGERATLSCRASQSISNNLHWYQQKPGQAPRLLIYYTSRSVSGIPARFSGSGSGTDFTLTISSLEPEDFAVYYCGQNNEWPEVFGGGTKVEIK
2 | – | – | – | – | – | – | – | – | – | – | – | – | – | binds | 1581 (antibody, V domains shown) VH: QVHVKQSGAELVKPGASVRLSCTASGYTFTSYWMHWVKQRPGQGLEWIGNINPNSGSANYNEKFKSKATLTVDTSSSTAYMQLSSLTSEDSAVYYCTREGPYSYYPVRVYYGLDYWGQGTSVTVSS VL: DIVLTQSPATLSVTPGDRVSLSCRASQSISNNLHWYQQKSHESPRLLIKYTSQSVSGIPSRFSASGSGTDFTLSINSVETEDFGMYFCQQSNSWPLTFGAGTKLELK
